According to US6642368B1, “Programmed cell death and caspase-12” (The General Hospital Corporation, priority 1998, dated 2003):

Columns and labels:
[1] = system: pro-caspase-12; assay: In vitro cleavage of [35S]-labeled protein by partially purified caspase-12Δ2; format: biochemical, mouse; conditions: 1 hr at 37° C., 0.1 μg enzyme
Source text: (§1) FIGS. 8A-8C Protease activity of caspase-12Δ2. […] Proteins were run on 15% gel and detected by Coomassie brilliant blue staining. Arrowheads indicate polypeptides derived from caspase-12 proteins. FIG. 8B is a diagram of processing sites on caspase-12Δ and caspase-12Δ2. […] Reaction was stopped by boiling with the addition of sample buffer for SDS-polyacrylamide gel electrophoresis. The molecular sizes in kilodaltons are indicated at the left.
(§2) ICE, casp-2 and casp-3 were cloned into a pET-15b vector (Novagen) and their expression was induced in the presence of 0.2-0.3 mM IPTG (Wang, S., et a., J. Biol. Chem. 271:20580-20587 (1996); Cryns, V. L., et al., J. Biol. Chem. 271:31277-31282 (1996)). Bacterial lysates containing the ICE-like proteases were prepared as described (Wang, S., et al., J. Biol. Chem. 271:20580-20587 (1996); Cryns, V. L., et al., J. Biol. Chem. 271:31277-31282 (1996)). [^35S]-labeled proteins were prepared by in vitro transcription and translation using a TNT coupled reticulocyte lysate system (Promega) and [^35S]methionine (Amersham). Labeled proteins were incubated at 37° C. with purified caspase-12Δ2 or at 30° C. with E. coli lysates containing the caspase family members. […] Cleavage products were analyzed by either 10- or 15% SDS-polyacrylamide gel electrophoresis. […]

[2] = system: pro-IL-1β and poly(ADP-ribose) polymerase; assay: Cleavage of preferred ICE and caspase-3 substrates by purified caspase-12Δ2; format: biochemical
Protocol: as §2, with “members. The reaction mixture contained 25 mM Hepes (pH 7.5) with 5 mM EDTA, 5 mM dithiothreitol, 10% sucrose, 10 μg/ml leupeptin and 250 μM phenylmethylsulfonyl fluoride. Amount of proteins used for cleavage reaction were: 0.1 μg for partially purified caspase-12Δ2, 25-70 μg for E. coli lysate.” for “members.”

[3] = system: pro-ICE, pro-caspase-2 and pro-caspase-3; assay: In vitro cleavage of [35S]-labeled proteins by partially purified caspase-12Δ2; format: biochemical; conditions: 1 hr or 3 hr incubation
Source text: as §1, §2

processing of pro-caspase-12 (48 kDa) into fragments [1]: can efficiently process
cleavage of pro-IL-1β and poly(ADP-ribose) polymerase [2]: little activity
cleavage of pro-ICE, pro-caspase-2 and pro-caspase-3 [3]: only faint bands of cleavage products
B1: caspase-12Δ2: truncated His-tagged caspase-12, amino acid residues 145-419 of SEQ ID NO:2 (protein)
chain: TLKLCPRDQFCKIKTERAKEIYPVMEKEGRTRLALIICNKKFDYLFDRDNADTDILNMQELLENLGYSVVLKENLTAQEMETELMQFAGRPEHQSSDSTFLVFMSHGILEGICGVKHRNKKPDVLHDDTIFKIFNNSNCRSLRNKPKILIMQACRGRYNGTIWVSTNKGIATADTDEERVLSCKWNNSITKAHVETDFIAFKSSTPHNISWKVGKTGSLFISKLIDCFKKYCWCYHLEEIFRKVQHSFEVPGELTQMPTIERVSMTRYFYLFPGN
modifications: His tag
